Changes are numbered by the printed parent chain. Numbers in names are those of the source.

Assay [1] addresses mouse protocadherin-15 EC1+2 R113G (mouse) (UniProt Q99PJ1). As to the kind of experiment: ITC. (ITC needs no label: the signal is the heat of the interaction.)
For assay [2], the target named is T1, mouse protocadherin-15 EC1+2 (mouse, UniProt Q99PJ1-18 27-259). Briefly: ITC.
The target in assay [3] is mouse protocadherin-15 EC1+2 I22A (mouse, UniProt Q99PJ1-18 27-259, I22A). Briefly: ITC.
Assay [4] deals with T1, mouse protocadherin-15 EC1+2. Briefly: crystal structure.

In the case of “mouse cadherin-23 EC1+2 (from UniProt Q99PF4 24-228) (domain or fragment)”, the Kd – broadly, the concentration at which binding is half-saturated – in assay [1] is over 20 µM.

B1: mouse cadherin-23 EC1+2 (domain or fragment)
chain: MQVNRLPFFTNHFFDTYLLISEDTPVGSSVTQLLARDMDNDPLVFGVSGEEASRFFAVEPDTGVVWLRQPLDRETKSEFTVEFSVSDHQGVITRKVNIQVGDVNDNAPTFHNQPYSVRIPENTPVGTPIFIVNATDPDLGAGGSVLYSFQPPSPFFAIDSARGIVTVIQELDYEVTQAYQLTVNATDQDKTRPLSTLANLAIIITD
B1: in assay [2], the Kd is 2900 nM; the dH was found to be 7080 cal/mol; the stoichiometry N (commonly the number of molecules, sites or subunits per partner or assembly) was determined as 0.88. Further, in assay [3], the dissociation constant (Kd) is over 100 µM.

B2: mouse cadherin-23 EC1+2 L145G (domain or fragment)
chain: B1 chain with L146G
As to B2, the Kd in assay [2] was over 30000 nM.

B3: mouse cadherin-23 EC1+2 S47P (domain or fragment)
chain: B1 chain with S48P
As for B3, the binding result in assay [4] is recorded as “binds”.

The values are drawn from publication PMC3518760 (Nature, 2012).
